Source: publication PMC5552742, “Kinetic and Structural Characterization of the Effects of Membrane on the Complex of Cytochrome b5 and Cytochrome c” (Scientific Reports, 2017)

Tests used:
Settings in all cases: both partners purified
[1] = target: T1, full-length rabbit cytochrome b5 (rabbit, UniProt P00169 1-134); assay: stopped-flow absorbance kinetics; cytb5 in nanodiscs; 25 °C, anaerobic; pre-reduced cytb5 mixed with ferric cyt c, final 6 uM cytb5 and 6.6 uM cyt c; micro-rates from numerical fit of the scheme binding (k1, k2) then electron transfer (k3)
T1 construct: Uniformly 15N-labelled where it is the observed protein in NMR, unlabelled otherwise; Ferric in NMR; reduced with dithionite (ferrous) for stopped flow; also called cytb 5; cytb5; source: E. coli C41, pLW01 plasmid, purified
T1 sequence (P00169 whole entry): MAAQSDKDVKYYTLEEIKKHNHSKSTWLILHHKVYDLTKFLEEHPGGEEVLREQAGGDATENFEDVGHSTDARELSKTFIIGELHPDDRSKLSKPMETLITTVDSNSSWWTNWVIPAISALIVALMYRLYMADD

[2] = target: T1, full-length rabbit cytochrome b5; assay: stopped-flow absorbance kinetics; cytb5 in DMPC/DHPC bicelles; 25 °C, anaerobic; pre-reduced cytb5 mixed with ferric cyt c, final 6 uM cytb5 and 6.6 uM cyt c; micro-rates from numerical fit of the scheme binding (k1, k2) then electron transfer (k3)
[3] = target: T1, full-length rabbit cytochrome b5; assay: stopped-flow absorbance kinetics; lipid-free cytb5; 25 °C, anaerobic; pre-reduced cytb5 mixed with ferric cyt c, final 6 uM cytb5 and 6.6 uM cyt c; micro-rates from numerical fit of the scheme binding (k1, k2) then electron transfer (k3); k2 fixed to zero

B1: equine cytochrome c (natural protein)
chain: not shown
notes: Unlabelled in the titrations into 15N-cytb5, in SEC/DLS and in stopped flow (ferric); uniformly 15N-labelled where it is the observed protein in NMR; also called cyt c; horse cyt c; source: obtained through a collaborator, prepared and purified as described previously; 15N-labeled form expressed and purified as reported in the literature
[1]
  koff: 54.54 ± 0.35 s⁻¹
[2]
  koff: 46.2 ± 0.86 s⁻¹
[3]
  koff: ~0 s⁻¹
